These results are taken from article PMC9863245, “A Putative New Role of Tv-PSP1 Recognizes IRE and ERE Hairpin Structures from Trichomonas vaginalis”.

For series [1], the target named is Tv-PSP1, perchloric-acid-soluble protein (PSP) from Trichomonas vaginalis (Trichomonas vaginalis). Put plainly: crystal structure; recombinant Tv-PSP1 20 mg/mL in 25 mM Tris-HCl pH 7.4, 150 mM NaCl, 1 mM DTT; sitting-drop vapor diffusion at 18 °C; space group P63, 1.95 Å; trimers built from the same monomer of different asymmetric units, interfaces analysed with PISA.

The target of the next series is T1, Tv-PSP1 (Trichomonas vaginalis, UniProt A2DAL5 1-124).
T1 sequence: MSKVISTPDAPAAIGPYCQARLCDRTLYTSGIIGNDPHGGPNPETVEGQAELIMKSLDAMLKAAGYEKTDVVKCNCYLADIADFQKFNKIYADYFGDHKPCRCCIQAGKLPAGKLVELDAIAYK
The experiment in a line: EMSA; 3 mM Mg2+; REMSA: 50 mM Tris-HCl, 75 mM KCl, 3 mM MgCl2, 10 mM DTT, 37 C, 30 min, pH not stated; 100 ug protein, 1 ug RNA; 1.7% agarose. The following applies: protein: recombinant; chain copies: 3; hairpin. For orientation: In EMSA bound probe runs differently from free probe, usually more slowly.

The term stoichiometry N denotes the number of molecules, sites or subunits per partner or assembly. As to “Tv-PSP1, perchloric-acid-soluble protein (PSP) from Trichomonas vaginalis (natural protein)”, the stoichiometry N in series [1] was 3.

On to GGGGUUUAGAAUUUCCAAUAA (structured_RNA) [ERE-like (tvcp39 3' UTR)], for which the binding result with Tv-PSP1 was “binds”.
